Source: patent US20230002481A1 (Chugai, published 2023)

Target: T1, recombinant cyno C1r2s2 His/Flag tetramer (cynomolgus monkey, limits assumed)
T1 construct: Heterotetramer of two C1r-His and two C1s-Flag chains, co-expressed in FreeStyle293-F cells; also called cyno C1r2s2s
T1 chain 1: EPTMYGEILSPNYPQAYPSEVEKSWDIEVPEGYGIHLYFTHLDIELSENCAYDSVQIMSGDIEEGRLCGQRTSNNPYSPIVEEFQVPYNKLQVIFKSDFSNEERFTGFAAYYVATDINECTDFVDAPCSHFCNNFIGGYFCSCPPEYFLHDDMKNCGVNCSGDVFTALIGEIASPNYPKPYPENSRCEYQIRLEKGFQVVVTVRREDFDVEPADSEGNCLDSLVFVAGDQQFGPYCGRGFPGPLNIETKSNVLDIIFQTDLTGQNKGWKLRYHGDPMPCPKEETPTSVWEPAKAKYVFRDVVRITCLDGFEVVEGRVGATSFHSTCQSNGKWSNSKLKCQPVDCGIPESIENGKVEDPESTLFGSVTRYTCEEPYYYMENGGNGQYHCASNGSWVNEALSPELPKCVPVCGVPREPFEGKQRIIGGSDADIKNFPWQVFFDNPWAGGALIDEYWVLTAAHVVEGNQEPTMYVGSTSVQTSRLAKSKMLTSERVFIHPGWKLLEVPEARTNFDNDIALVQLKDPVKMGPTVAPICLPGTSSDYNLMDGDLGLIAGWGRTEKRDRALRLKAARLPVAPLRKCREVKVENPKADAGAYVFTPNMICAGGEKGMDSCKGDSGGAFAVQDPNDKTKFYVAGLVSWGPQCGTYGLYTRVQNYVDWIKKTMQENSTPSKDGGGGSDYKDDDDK
T1 chain 2: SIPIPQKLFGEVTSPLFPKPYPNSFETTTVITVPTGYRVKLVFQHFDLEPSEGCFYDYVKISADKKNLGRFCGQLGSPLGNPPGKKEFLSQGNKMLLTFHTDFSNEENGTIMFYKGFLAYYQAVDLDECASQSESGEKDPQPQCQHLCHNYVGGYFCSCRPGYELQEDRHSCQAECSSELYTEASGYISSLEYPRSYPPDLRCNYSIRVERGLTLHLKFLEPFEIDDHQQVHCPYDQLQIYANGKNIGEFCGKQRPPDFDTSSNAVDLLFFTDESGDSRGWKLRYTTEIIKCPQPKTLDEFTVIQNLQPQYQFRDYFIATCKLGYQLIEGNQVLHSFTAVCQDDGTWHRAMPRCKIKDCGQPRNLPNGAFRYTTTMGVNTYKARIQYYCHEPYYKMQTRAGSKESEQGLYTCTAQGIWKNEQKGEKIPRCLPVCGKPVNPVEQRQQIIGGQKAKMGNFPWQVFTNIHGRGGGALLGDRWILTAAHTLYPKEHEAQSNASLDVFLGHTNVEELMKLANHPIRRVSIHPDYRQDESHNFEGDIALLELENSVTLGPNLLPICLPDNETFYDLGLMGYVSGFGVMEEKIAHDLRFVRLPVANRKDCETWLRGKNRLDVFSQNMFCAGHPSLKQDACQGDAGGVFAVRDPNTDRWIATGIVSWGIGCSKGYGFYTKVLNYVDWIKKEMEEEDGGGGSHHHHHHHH
Test: SPR (Biacore), antibody captured on ProA/G, antigen as analyte, 37 C, pH7.4, 1.2 mM CaCl2
Procedure: The kinetic parameters of anti-C1s antibodies against recombinant human C1s (as described in PCT/JP2018/042054), human C1r2s2, and cyno C1r2s2 His/Flag (also referred as cyno C1r2s2 in the Table and Figures) were assessed at pH7.4 and pH5.8, at 37 degrees C. using BIACORE (registered trademark) T200 instrument (GE Healthcare) or BIACORE 4000 (GE Healthcare). ProAG (Pierce) was immobilized onto a CM4 sensorchip using amine coupling kit (GE Healthcare) according to the recommended settings by GE Healthcare. Antibodies and analytes were diluted into the respective running buffers, ACES pH7.4 and pH5.8 (20 mM ACES, 150 mM NaCl, 1.2 mM CaCl₂, 1 mg/ml BSA, 1 mg/ml CMD, 0.05% Tween 20, 0.005 w/v % NaN₃). Each antibody was captured onto the sensor surface by ProA/G. Antibody capture levels were typically 100-200 resonance units (RU). Then, recombinant C1s was injected at concentrations of 25 and 50 nM followed by dissociation at pH7.4 and pH5.8. The surface was regenerated using 10 mM Glycine-HCl, pH1.5. Kinetic parameters at neutral pH conditions and acidic conditions were determined by fitting the sensorgrams with 1:1 binding model using BIACORE (registered trademark) T200 Evaluation software, version 2.0 (GE Healthcare) or BIACORE 4000 Evaluation software. The dissociation rate at pH5.8 (after dissociation at pH7.4, indicated as pH5.8* in TABLE 2) was determined by processing and fitting data using Scrubber 2.0 (BioLogic Software) curve fitting software. The association rate (ka), dissociation rate (kd), binding affinity (KD) at pH7.4 and pH5.8 condition, and dissociation rate (kd) at pH5.8* condition of the antibodies are listed in TABLE 2. Some kinetic parameters of COS0098pHv1 in acidic condition were not correctly calculated because of its weak binding response.
Also, to observe the cross-reactivity of anti-C1s antibodies against human C1r2s2 and cyno C1r2s2 (cyno C1r2s2 His/Flag), BIACORE (registered trademark) kinetics analysis was performed.

B1: COS0098pHv1 (antibody, V domains shown)
VH: QVQLVQSGAEVKKPGSSVKVSCKASGHTFSKYTVSWIRQPPGKGLEWIGIINTGGSAYPATWAKGRVTITADESTSTAYMELSSLRSEDTAVYYCARGAGDTDYTNLWGQGTLVTVSS
VL: DIQMTQSPSSLSASVGDRVTITCQASENIYSALAWYQQKPGQPPKLLIYGASQLESGVPSRFSGSGSGTDFTLTISSLQPEDFATYYCQQYYFTSHTFGQGTKVEIK
notes: Humanized, optimized pH-dependent variant of COS0098bb
  Kd: 2.87 nM
  koff: 0.00125 s⁻¹
  kon: 435000 M⁻¹ s⁻¹
